Results reported in PMC7007264.

Target: Rad51-2A (Saccharomyces cerevisiae, UniProt P25454 1-400, S125A;S375A)
Test: EMSA

Sequence of Rad51-2A (P25454 whole entry S125A/S375A): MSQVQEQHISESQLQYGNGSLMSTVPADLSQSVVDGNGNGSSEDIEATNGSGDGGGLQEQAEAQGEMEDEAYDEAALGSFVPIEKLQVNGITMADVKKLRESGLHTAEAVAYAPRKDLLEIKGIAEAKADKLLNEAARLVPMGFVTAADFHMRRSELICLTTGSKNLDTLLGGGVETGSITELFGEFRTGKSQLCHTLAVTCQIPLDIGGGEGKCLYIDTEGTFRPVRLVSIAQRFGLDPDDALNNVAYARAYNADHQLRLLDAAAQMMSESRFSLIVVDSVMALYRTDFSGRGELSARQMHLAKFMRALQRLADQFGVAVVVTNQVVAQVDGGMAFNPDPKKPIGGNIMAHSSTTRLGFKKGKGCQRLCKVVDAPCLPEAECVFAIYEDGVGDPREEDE

B1: ssDNA EMSA probe (ssDNA)
DNA: CGGGTGTCGGGGCTGGCTTAACTATGCGGCATCAGAGCAGATTGTACTGAGAGTGCACCATATGCGGTGTGAAATACCGCACAGATGCGT
  binding result: no binding
